From patent publication US20180230224A1 (KITE PHARMA, published 2018)

B1: 8G1.1_C28T_28z (other)
chain: QEQLVESGGGVVQPGRSLRLSCAASGFTFSSYGMHWVRQAPGKGLEWVAVTWYDGSNKYYGDSVKGRFTISRDNSKNTLYLQMNSLRAEDTAVYYCARDLLRGVKGYAMDVWGQGTTVTVSSGGGGSGGGGSGGGGSEIVLTQSPGTLSLSPGERATLSCRASQSLRRIYLAWYQQKPGQAPRLLIYDVFDRATGIPDRFSGGGSGTDFTLTISRLEPEDFAVYYCQQYSDSPFTFGPGTKVDIKRAAALDNEKSNGTIIHVKGKHLCPSPLFPGPSKPFWVLVVVGGVLACYSLLVTVAFIIFWVRSKRSRLLHSDYMNMTPRRPGPTRKHYQPYAPPRDFAAYRSRVKFSRSADAPAYQQGQNQLYNELNLGRREEYDVLDKRRGRDPEMGGKPRRKNPQEGLYNELQKDKMAEAYSEIGMKGERRRGKGHDGLYQGLSTATKDTYDALHMQALPPR
notes: also called CD70 CAR C3L; 28T-28z comprising an 8G1 scFv
B2: 8G1.1_C28T_4Bz (other)
chain: QEQLVESGGGVVQPGRSLRLSCAASGFTFSSYGMHWVRQAPGKGLEWVAVTWYDGSNKYYGDSVKGRFTISRDNSKNTLYLQMNSLRAEDTAVYYCARDLLRGVKGYAMDVWGQGTTVTVSSGGGGSGGGGSGGGGSEIVLTQSPGTLSLSPGERATLSCRASQSLRRIYLAWYQQKPGQAPRLLIYDVFDRATGIPDRFSGGGSGTDFTLTISRLEPEDFAVYYCQQYSDSPFTFGPGTKVDIKRAAALDNEKSNGTIIHVKGKHLCPSPLFPGPSKPFWVLVVVGGVLACYSLLVTVAFIIFWVRFSVVKRGRKKLLYIFKQPFMRPVQTTQEEDGCSCRFPEEEEGGCELRVKFSRSADAPAYQQGQNQLYNELNLGRREEYDVLDKRRGRDPEMGGKPRRKNPQEGLYNELQKDKMAEAYSEIGMKGERRRGKGHDGLYQGLSTATKDTYDALHMQALPPR
notes: Chimeric antigen receptor on lentivirus-transduced human T cells; 8G1 scFv, CD28T hinge/TM, 4-1BB, CD3 zeta; also called 28T-4Bz comprising an 8G1 scFv
B3: 1C8.1.001_C28T_28z (other)
chain: QVQLQESGPGLVKPSQTLSLTCTVSGDSIISGGYYWSWIRQHPGKGLEWIGYIFYSGSTDYNPSLKSRVTISVDTSKNQFSLKLSSVTAADTAVYYCARSGYSYALFDHWGQGTLVTVSSGGGGSGGGGSGGGGSDIQMTQSPSSLSASVGDRVTISCRASQFIGRYFNWYQQQPGKAPKVLIYAESSLQSGVPSRFSGSGSGTEFTLTISSLQPEDFARYYCQQSYSTPFTFGQGTKVEIKRAAALDNEKSNGTIIHVKGKHLCPSPLFPGPSKPFWVLVVVGGVLACYSLLVTVAFIIFWVRSKRSRLLHSDYMNMTPRRPGPTRKHYQPYAPPRDFAAYRSRVKFSRSADAPAYQQGQNQLYNELNLGRREEYDVLDKRRGRDPEMGGKPRRKNPQEGLYNELQKDKMAEAYSEIGMKGERRRGKGHDGLYQGLSTATKDTYDALHMQALPPR
notes: Chimeric antigen receptor on lentivirus-transduced human T cells; also called 28T-28z comprising a 1C8 scFv
B4: 1C8.1.001_C28T_4Bz (other)
chain: QVQLQESGPGLVKPSQTLSLTCTVSGDSIISGGYYWSWIRQHPGKGLEWIGYIFYSGSTDYNPSLKSRVTISVDTSKNQFSLKLSSVTAADTAVYYCARSGYSYALFDHWGQGTLVTVSSGGGGSGGGGSGGGGSDIQMTQSPSSLSASVGDRVTISCRASQFIGRYFNWYQQQPGKAPKVLIYAESSLQSGVPSRFSGSGSGTEFTLTISSLQPEDFARYYCQQSYSTPFTFGQGTKVEIKRAAALDNEKSNGTIIHVKGKHLCPSPLFPGPSKPFWVLVVVGGVLACYSLLVTVAFIIFWVRFSVVKRGRKKLLYIFKQPFMRPVQTTQEEDGCSCRFPEEEEGGCELRVKFSRSADAPAYQQGQNQLYNELNLGRREEYDVLDKRRGRDPEMGGKPRRKNPQEGLYNELQKDKMAEAYSEIGMKGERRRGKGHDGLYQGLSTATKDTYDALHMQALPPR
notes: Chimeric antigen receptor on lentivirus-transduced human T cells; 1C8 scFv, CD28T hinge/TM, 4-1BB, CD3 zeta; also called 28T-4Bz comprising a 1C8 scFv
B5: 6E9.1_C28T_28z (other)
chain: QVHLVQSGAEVKKPGASVRVSCKASGYTFTSYYLHWVRQAPGQGLEWMGIVDPSGGSTSYDQKFQGRFTMTRDTSTSTVYMELSSLRSEDTAVYYCARDYGDYVFDYWGQGTLVTVSSGGGGSGGGGSGGGGSQSVLTQPPSASGTPGQRVTISCSGSSSNIGTNTVNWYQQLPGTAPQLLIYINNQRPSGVPDRFSGSKSGTSASLAISGLQSEDEADYYCATWDDSLNGPVVGGGTKLTVLGAAALDNEKSNGTIIHVKGKHLCPSPLFPGPSKPFWVLVVVGGVLACYSLLVTVAFIIFWVRSKRSRLLHSDYMNMTPRRPGPTRKHYQPYAPPRDFAAYRSRVKFSRSADAPAYQQGQNQLYNELNLGRREEYDVLDKRRGRDPEMGGKPRRKNPQEGLYNELQKDKMAEAYSEIGMKGERRRGKGHDGLYQGLSTATKDTYDALHMQALPPR
notes: Chimeric antigen receptor on lentivirus-transduced human T cells; also called 28T-28z comprising a 6E9 scFv
B6: 6E9.1_C28T_4Bz (other)
chain: QVHLVQSGAEVKKPGASVRVSCKASGYTFTSYYLHWVRQAPGQGLEWMGIVDPSGGSTSYDQKFQGRFTMTRDTSTSTVYMELSSLRSEDTAVYYCARDYGDYVFDYWGQGTLVTVSSGGGGSGGGGSGGGGSQSVLTQPPSASGTPGQRVTISCSGSSSNIGTNTVNWYQQLPGTAPQLLIYINNQRPSGVPDRFSGSKSGTSASLAISGLQSEDEADYYCATWDDSLNGPVVGGGTKLTVLGAAALDNEKSNGTIIHVKGKHLCPSPLFPGPSKPFWVLVVVGGVLACYSLLVTVAFIIFWVRFSVVKRGRKKLLYIFKQPFMRPVQTTQEEDGCSCRFPEEEEGGCELRVKFSRSADAPAYQQGQNQLYNELNLGRREEYDVLDKRRGRDPEMGGKPRRKNPQEGLYNELQKDKMAEAYSEIGMKGERRRGKGHDGLYQGLSTATKDTYDALHMQALPPR
notes: Chimeric antigen receptor on lentivirus-transduced human T cells; 6E9 scFv, CD28T hinge/TM, 4-1BB, CD3 zeta; also called 28T-4Bz comprising a 6E9 scFv

What was measured:
[1] = molecular target: CD70 on NAMALWA and Raji cells (human) (UniProt P32970); assay: flow cytometry; EoL-1 cells stained with PE-conjugated anti-CD70 antibody; open histogram as control
[2] = molecular target: CD70 on NAMALWA and Raji cells (human) (UniProt P32970); assay: flow cytometry; U-937 cells stained with PE-conjugated anti-CD70 antibody; open histogram as control
[3] = molecular target: CD70 on NAMALWA and Raji cells (human) (UniProt P32970); assay: flow cytometry; MV4;11 cells stained with PE-conjugated anti-CD70 antibody; open histogram as control
[4] = molecular target: CD70 on NAMALWA and Raji cells (human) (UniProt P32970); assay: flow cytometry; Toledo cells stained with PE-conjugated anti-CD70 antibody; open histogram as control
[5] = molecular target: CD70 on NAMALWA and Raji cells (human) (UniProt P32970); assay: flow cytometry; NAMALWA cells stained with PE-conjugated anti-CD70 antibody; open histogram as control
[6] = molecular target: CD70 on NAMALWA and Raji cells (human) (UniProt P32970); assay: flow cytometry; Raji cells (panel title cut to 'Raj'; panel order given in the legend paragraph 42) stained with PE-conjugated anti-CD70 antibody; open histogram as control
[7] = molecular target: T1, recombinant CD70-Fc (Sino Biological) (UniProt P32970 39-193, limits assumed); assay: flow cytometry; donor 1 T cells transduced with the CAR, day 14 post stimulation, stained with recombinant CD70-Fc and goat anti-human IgG Fc PE; mock-transduced cells as control
T1 construct: Bought reagent; not shown: Fc part
T1 sequence (looked up): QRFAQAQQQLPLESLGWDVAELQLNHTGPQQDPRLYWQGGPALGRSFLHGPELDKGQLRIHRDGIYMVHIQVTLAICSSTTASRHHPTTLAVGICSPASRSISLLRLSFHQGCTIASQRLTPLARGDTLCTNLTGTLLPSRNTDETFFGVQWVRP
Method: Peripheral blood mononuclear cells (PBMCs) were isolated from two different healthy donor leukopaks (Hemacare) using Ficoll®-Paque density centrifugation according to the manufacturer's instructions. PBMCs were stimulated using OKT3 (Muromonab-CD3, 50 ng/ml, Miltenyi Biotec) in R10 media supplemented with IL-2 (300 IU/ml, Proleukin®, Prometheus® Therapeutics and Diagnostics). Forty-eight hours post-stimulation, cells were transduced using lentivirus containing the different CD70 CAR constructs at a multiplicity of infection (MOI) of 10. Cells were maintained at 0.5×10⁶-2.0×10⁶ cells/ml prior to use in activity assays.
At day 14 post-stimulation, transduced T cells were stained with recombinant CD70-Fc (Sino Biological) in stain buffer (BD Pharmingen) for 30 minutes at 4° C. Cells were then washed and stained with goat anti-human IgG Fc PE (Jackson ImmunoResearch) in stain buffer for 30 minutes at 4° C. Cells were then washed and resuspended in stain buffer with propidium iodide (BD Pharmingen) prior to data acquisition. All experiments were performed in two different donors.

Molecule | % CAR (+) [7] [%] | other results
anti-CD70 antibody conjugated to PE (BD Pharmingen) |  | percent of cells in the positive gate (number in the panel) [1]: 64.6%; percent of cells in the positive gate (number in the panel) [2]: 96.6%; percent of cells in the positive gate (number in the panel) [3]: 43.1%; percent of cells in the positive gate (number in the panel) [4]: 99.9%; percent of cells in the positive gate (number in the panel) [5]: 100%; percent of cells in the positive gate (number in the panel) [6]: 100%
B1 | 42.2 | 
B2 | 49.8 | 
B3 | 25.4 | 
B4 | 0.27 | 
B5 | 4.45 | 
B6 | 4.48 | 
